# Source: patent US20130224191A1, “NOTUM PROTEIN MODULATORS AND METHODS OF USE” (priority 2010, published 2013)
# “Also recorded” adds a separate entry of the source.
# T1: Notum (Homo sapiens, UniProt Q6P988)
# T1 sequence (Q6P988 20-496): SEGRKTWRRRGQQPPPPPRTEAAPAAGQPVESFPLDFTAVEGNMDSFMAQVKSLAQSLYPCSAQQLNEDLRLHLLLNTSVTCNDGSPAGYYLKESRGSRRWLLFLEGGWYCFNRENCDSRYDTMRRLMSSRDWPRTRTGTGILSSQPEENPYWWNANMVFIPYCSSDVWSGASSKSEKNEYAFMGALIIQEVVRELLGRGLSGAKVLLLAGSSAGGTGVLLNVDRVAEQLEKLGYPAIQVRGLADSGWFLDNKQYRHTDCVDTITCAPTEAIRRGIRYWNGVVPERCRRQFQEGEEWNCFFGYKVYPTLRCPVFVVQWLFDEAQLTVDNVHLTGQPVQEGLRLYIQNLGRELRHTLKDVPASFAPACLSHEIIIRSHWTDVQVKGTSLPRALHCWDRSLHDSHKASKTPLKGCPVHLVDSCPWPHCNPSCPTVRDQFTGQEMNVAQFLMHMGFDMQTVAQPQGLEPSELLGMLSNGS
# T2: porcine pancreatic lipase (Sus scrofa, UniProt P00591)
# T2 construct: purchased Sigma Aldrich
# T2 sequence (P00591 1-450): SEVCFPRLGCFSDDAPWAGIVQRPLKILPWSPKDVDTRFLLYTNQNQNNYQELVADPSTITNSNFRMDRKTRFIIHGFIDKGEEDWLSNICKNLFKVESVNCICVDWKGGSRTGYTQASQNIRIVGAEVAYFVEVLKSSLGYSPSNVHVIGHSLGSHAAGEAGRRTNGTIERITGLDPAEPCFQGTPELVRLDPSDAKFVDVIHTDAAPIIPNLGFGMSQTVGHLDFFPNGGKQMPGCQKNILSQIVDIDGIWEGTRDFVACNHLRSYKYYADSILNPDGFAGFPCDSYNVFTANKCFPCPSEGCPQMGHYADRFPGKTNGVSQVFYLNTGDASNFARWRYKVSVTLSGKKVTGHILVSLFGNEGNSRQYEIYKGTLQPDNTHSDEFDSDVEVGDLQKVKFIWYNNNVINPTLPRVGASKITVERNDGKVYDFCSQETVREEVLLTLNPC
# B1: SC2.D2.2 (antibody, V domains shown)
# VH: DVQLVESGGGLVQPGGSRKISCAASGFTFSSYGMHWVRQAPEKGLEWVAYISSSTVTTYYADTVKGRFTISRDNANNTLFLQMTSLRSEDTAMYYCSRQNWDGGYFDVWGAGTTVTVSS
# VL: DIVLTQSLASLAVSLGQRATISCRASKSVSSSGYSYMHWYQQKPGQPPKLLIYLASNLESGVPARFSGSGSGTDFTLNIHPVEEEDAATYYCQHSRALPLTFGAGTKLELKR
# notes: also called murine SC2.D2.2
# Assays:
# Notum = molecular target: T1, Notum; experiment: Neutralization of human Notum activity in 293.TCF luciferase assay; assay type: cell-based; set-up: 8x-His; Strep-tag II; IgK signal peptide/leader of the pSEC-CAG vector (N); made in house; host or cells: HEK293T (adherent) / suspension 293 cells
# Protocol: Using the 293.TCF cells described above, supernatants from hybridomas and/or purified antibodies shown to bind Notum by ELISA assays (Example 9) were screened for their ability to neutralize hNotum-His or hNotum-Fc activity as follows. 2.5×10^4 293.TCF cells were plated per well of a 96-well tissue culture plate in 50 μL of serum-free medium. After 23 hours of serum starvation, 10 μL of DMEM+0.2% FBS containing various Notum proteins at various concentrations were mixed with either 15 μL of supernatant from the hybridoma, or 15 μL of purified antibody at various concentrations, and allowed to incubate for 5 minutes at room temperature. The 25 μL antibody:Notum mixture was then added to the 293.TCF cells. After 1 hour, 25 μL of Wnt3A or control L-cell CM were added to each well. Eighteen hours after addition of CM, 100 μL of One-Glo solution (ProMega Corp.) was added to each well. The contents of each well were then mixed thoroughly to lyse the cells, 100 μL of lysate transferred to black 96-well plates, and the luminescence read after 5 minutes. […]
# HCT-116 cells = experiment: Cell survival/proliferation, CellTiterGlo, HCT-116; assay type: cell-based, human
# Protocol: To determine whether Notum protein impacts cell proliferation and/or apoptosis of human colorectal cancer cells, HCT-116 cells or mouse lineage-depleted NTX tumor cells (i.e. human tumor cells) were plated as described below and exposed to recombinant hNotum (e.g. hNotum-His or hNotum-hFc) and anti-Notum antibodies. Cell numbers were then assessed 12-14 days later.
# Cells were then incubated for 14 days at 37° C., 5% CO2 and 5% O2 and the number of viable cells was assessed using Promega's CellTiterGlo assay kit per the manufacturer's instructions. For the HCT-116 cell line (a commercially available colorectal tumor cell line), cells were plated at 2,000 cells per well in DMEM+1% FBS, followed 24-hours later by the addition of serum free DMEM containing recombinant human Notum in the presence or absence of monoclonal antibodies SC2.D2.2 or SC2.10B3. HCT-116 cells were then incubated for 12 days at 37° C., 5% CO2 and cell viability was assessed with Promega's CellTiterGlo assay kit. Higher readings are indicative of higher viable cell counts.
# [1] = molecular target: T2, porcine pancreatic lipase; experiment: Inhibition of porcine pancreatic lipase (Tween 20); assay type: biochemical
# Protocol: Briefly, recombinant hNotum (1 μg/well) was added to an assay buffer containing 50 mM Tris, pH 7.4, 33.3 mM CaCl2, and 0.33% Tween-20. When the Tween 20 monolauryl group is cleaved by lipases (e.g. hNotum), the free fatty acid forms an insoluble complex with the Ca^2+ cations resulting in a turbid solution, the OD of which can be measured at 405 nm to provide a measure of lipase activity. As a positive control, the activity of porcine pancreatic lipase (Sigma Aldrich) was measured in the same assay.
# In order to take advantage of this enzymatic property and further exemplify the properties of the present invention, an assay was run to determine the effects of Notum modulators on the lipolytic activity of Notum. To that end, various concentrations of SC2.D2.2 were preincubated with hNotum for a set period prior to adding the mixture to the assay buffer and measuring the resulting enzymatic activity as described above. The results of the assay are graphically represented in FIG. 20
molecule,measurement,setting,value
B1,inhibition of human Notum activity,Notum,acts in a concentration dependent manner to antagonize the effects of added hNotum-His; also recorded: can inhibit the activity of human Notum in a dose dependent fashion; also recorded: specifically inhibit the human version of Notum
same,effect on hNotum induced increase in cell numbers,HCT-116 cells,blocked
same,effect on lipase activity of porcine pancreatic lipase,[1],not severely impacting the lipase activity
